In patent US20070249534A1, “Novel medicament for treating neurodegenerative diseases” (priority 2001, published 2007):
Like-named read-outs stand apart in the source and are kept apart here. Where a SMILES comes first, the peptide text is derived from it. Where no end group is shown, it is not given here. [ ]: non-standard residue; d: D form. Sec = N[C@@H](C[SeH])C(=O)O

How the values were obtained:
Rolling Mouse Nagoya [1] = details: intraperitoneal administration; cited from earlier work
Dami cells [2] = assay: Cytotoxicity-inhibitory (cell death-inhibitory) activity assay using Dami cells; format: cell-based; details: for cell death-inhibitory activity (in words): selenoprotein P and fragments purified from plasma
Protocol: Using Dami cells (described in Greenberg S. M. et al., Blood, vol. 72, p. 1968-1977 (1988)) for use in assay system for cytotoxicity-inhibitory activity, the cells were washed twice with assay medium (50% PBS/SA/0.03% HSA (manufactured by SIGMA) or SA/0.05% BSA free from fatty acid (WAKO)/4 μM long-chain polyvalent fatty acid (e.g. arachidonic acid, linoleic acid or linolenic acid)) and suspended in the same medium at 3×10^4 cells/ml. The cell suspension was added to a 96-well plate in each 200 μl for wells for sample addition or in each 100 μl for wells for serial dilution. […] After stirring, a serial dilution was made with the wells containing 100 μl cell suspension. The plate was incubated at 37° C. in CO2 incubator for 4 to 5 days followed by assessment of survival of the cells.

Dami cells [3] = test system: Dami cells
Dami cells [4] = details: stated as known; cited from earlier work
Rolling Mouse Nagoya [5] = assay: Effect of selenoprotein P on ataxia (stumbling index) in Rolling Mouse Nagoya; format: in vivo
Protocol: In order to confirm the activity to ameliorate ataxia of selenoprotein P, Rolling Mouse Nagoya, the established model of ataxia, was used with a stumbling index. Animals were divided into the following groups each consisting of ten animals: a control group intraperitoneally administered with saline (0.25 mL/head/week); a group intraperitoneally administered with a low dose of selenoprotein P (0.05 mg/head/week; 0.25 mL/head/week); and a group intraperitoneally administered with a high dose of selenoprotein P (0.5 mg/head/week; 0.25 mL/head/week). The animals received intraperitoneal administration once a week for three weeks.
The animals were Rolling Mouse Nagoya (113 animals, five to eight months old, weighing 19.1 to 36.2 g) regardless of sex. Grouping of the animals was based on the weight measured on the day before initiation of the experiment and a stumbling index measured before initiation of the experiment. A quantity of voluntary motion was measured during thirty minutes immediately before administration (during 30-0 min. before administration), immediately after administration (during 0-30 min. after administration), one hour after administration (during 60-90 min. after administration), three hours after administration (during 180-210 min. after administration), and seven hours after administration (during 420-450 min. after administration) with a device for measuring voluntary motion. Stumbling of animals was counted with a video camera set upon the device for measuring voluntary motion during the same time period as that of measurement of voluntary motion. A stumbling index was calculated by the formula: [Count of stumbling (count/30 min.)]/[Voluntary motion (count/30 min.)]. The results are shown in FIGS. 1 to 3 wherein #: p<0.05, ##: p<0.01, being significant as compared to values before administration (paired t-test); *: p<0.05, being significant as compared to control during the same time period (Turkey test).

[6] = Stability of selenoprotein P and its fragments to heat, denaturing agent, pH, protease in blood; format: physicochemical; details: compared to common enzymes
Dami cells [7] = assay: Toxicity of selenium-containing substances to cells in culture; details: concentration where selenocystine / other selenium-containing substances show toxicity

NC(=O)[C@@H]1CCCN1C(=O)[C@H](Cc1cnc[nH]1)NC(=O)[C@@H]1CCC(=O)N1 [TRH, thyrotropin-releasing hormone]
duration of the efficacy (Rolling Mouse Nagoya [1]): about 1 hours

Lys Arg Cys Ile Asn Gln Leu Leu Cys Lys Leu Pro Thr Asp Ser Glu Leu Ala Pro Arg Ser Xaa Cys Cys H is Cys Arg H is Leu Ile Phe Glu Lys (KRCINQLLCKLPTDSELAPRS[Sec]CCHCRHLIFEK; cysteine pairing not given here; listed as Human plasma) [SEQ ID NO: 3, peptide purified under reduced condition from selenoprotein P fragment]
cell death-inhibitory activity (in words) (Dami cells [2]): had the cell death-inhibiting activity

CC[C@H](C)[C@H](NC(=O)[C@H](CC(C)C)NC(=O)[C@H](Cc1c[nH]cn1)NC(=O)[C@H](CCCNC(=N)N)NC(=O)[C@H](CO)NC(=O)[C@H](Cc1c[nH]cn1)NC(=O)[C@H](CO)NC(=O)[C@H](CO)NC(=O)[C@H](C[SeH])NC(=O)[C@H](CO)NC(=O)[C@@H](N)CCCNC(=N)N)C(=O)N[C@@H](Cc1ccccc1)C(=O)N[C@@H](CCC(=O)O)C(=O)N[C@@H](CCCCN)C(=O)O [Peptide 6, Arg Ser Xaa Ser Ser His Ser Arg His Leu Ile Phe Glu Lys] (H-RS[Sec]SSHSRHLIFEK-OH)
cytotoxicity-inhibitory activity (in words) (Dami cells [2]; Dami cells, peptides of Preparation 2): most effectively at the lowest concentration

N[C@@H](C[Se][Se]C[C@H](N)C(=O)O)C(=O)O [selenocystine]
toxicity (in words) (Dami cells [3]): exhibited toxicity | toxicity when added alone to cell culture (Dami cells [4]): fairly strong toxicity

B1: selenoprotein P (protein)
chain: ESQDQSSLCKQPPAWSIRDQDPMLNSNGSVTVVALLQASUYLCILQASKLEDLRVKLKKEGYSNISYIVVNHQGISSRLKYTHLKNKVSEHIPVYQQEENQTDVWTLLNGSKDDFLIYDRCGRLVYHLGLPFSFLTFPYVEEAIKIAYCEKKCGNCSLTTLKDEDFCKRVSLATVDKTVETPSPHYHHEHHHNHGHQHLGSSELSENQQPGAPNAPTHPAPPGLHHHHKHKGQHRQGHPENRDMPASEDLQDLQKKLCRKRCINQLLCKLPTDSELAPRSUCCHCRHLIFEKTGSAITUQCKENLPSLCSUQGLRAEENITESCQURLPPAAUQISQQLIPTEASASURUKNQAKKUEUPSN
modifications: non-natural residues
cell death-inhibitory activity (in words) (Dami cells [2]): much lower than that of the fragment thereof | stumbling index compared with values before administration (Rolling Mouse Nagoya [5]; high dose 0.5 mg/head/week i.p., 420-450 min Week 1, 60-90, 180-210, 420-450 min Week 2, 60-90 min Week 3): significant decrease | stumbling index compared with control group, significance (Rolling Mouse Nagoya [5]; high dose 0.5 mg/head/week i.p., during 60-90 min. after administration on Week 1): significant decrease | stumbling index compared with control group (Rolling Mouse Nagoya [5]; high dose 0.5 mg/head/week i.p., each time period on Week 1, Week 2 and Week 3): remained lower than the control group | stumbling index, low dose group (Rolling Mouse Nagoya [5]; low dose 0.05 mg/head/week i.p.): no significant decrease | stability to heat, a denaturing agent, a broad range of pH or protease in blood [6]: rather stable | toxicity (in words) (Dami cells [7]): no strong toxicity

B2: SEQ ID NO: 2: selenoprotein P fragment, 260th to 362nd amino acids (103 C-terminal residues) (protein, listed as Human plasma)
chain: KRCINQLLCKLPTDSELAPRS[code U]CCHCRHLIFEKTGSAIT[code U]QCKENLPSLCS[code U]QGLRAEENITESCQ[code U]RLPPAA[code U]QISQQLIPTEASAS[code U]R[code U]KNQAKK[code U]E[code U]PSN
modifications: ends and bridges not checked
cell death-inhibitory activity (in words) (Dami cells [2]): having the cell death-inhibiting activity
